Experimental findings from publication PMC11434081, “Cross-Effects in Folding and Phase Transitions of hnRNP A1 and C9Orf72 RNA G4 In Vitro” (Molecules, 2024) are described below.

Residue numbers refer to the chain shown, from its start. In names and notes the source's numbering stands.

The data set deals with the molecule itself. The data set is described as follows: thioflavin T fluorescence (fibrillation assay); self-association of the peptide into cross-beta fibrils; 40 µM peptide, 13 µM ThT, 0.5 mM DTT, 40 mM HEPES-KOH pH 7.4, 150 mM KCl or NaCl (methods), room temperature (RGG-PLD^mut-NLS also at 37 °C), at least 3 h.

B1: RGG-PLD^mut-NLS (hnRNP A1 aa 218–272, D262V) (peptide)
peptide: RGGNFSGRGGFGGSRGGGGYGGSGDGYNGFGNDGSNFGGGGSYNVFGNYNNQSSN
notes: hnRNP A1, human, residues 218-272 with D262V; Synthesised on an amide resin, so the C-terminus may be amidated; source: synthetic peptide (Fmoc solid phase, RP-HPLC purified)
Take B1: the “reduction of the ThT signal relative to PLD^mut-NLS” value turned out to be 30 ± 10%.

B2: RGG-PLD^wt-NLS (hnRNP A1 aa 218–272, wild type) (peptide)
peptide: B1 peptide with V45D
notes: hnRNP A1, human, residues 218-272, wild type; Synthesised on an amide resin, so the C-terminus may be amidated; source: synthetic peptide (Fmoc solid phase, RP-HPLC purified)
With B2, the “fold lower fibrillation (ThT) than RGG-PLD^mut-NLS” value was around 2 fold.

B3: PLD^mut-NLS (hnRNP A1 aa 234–272, D262V) (peptide)
peptide: GGGYGGSGDGYNGFGNDGSNFGGGGSYNVFGNYNNQSSN
notes: hnRNP A1, human, residues 234-272 with D262V; Synthesised on an amide resin, so the C-terminus may be amidated; source: synthetic peptide (Fmoc solid phase, RP-HPLC purified)
As to B3, the binding result is recorded as “binds”.
